Measurements as given in patent US11110182B2, “Multifunctional RNA nanoparticles and methods for treating cancer and therapeutic resistant cancer” (University of Cincinnati, priority 2016, dated 2021).

Legend:
MED1 = MED1 protein level by western blotting in BT474 cells; format: cell-based, human; details: 48 h; for MED1 protein level after transfection with lipofectamine 2000: BT474, transfected
Protocol: (§1) FIG. 3A) BT474 cells were incubated with 10 μg/mL control and pRNA-HER2apt-siMED1 nanoparticles for 48 h, and MED1 mRNA level was determined by real-time PCR. FIG. 3B) BT474 cells were incubated directly with (as indicated by -) or transfected with indicated pRNAs using lipofectamine 2000. At 48 h post treatment, MED1 protein levels were determined by western blotting. FIG. 3C) BT474 cells were treated with 10 μg/mL pRNA nanoparticles for 48 h and assayed for cell viability by MTT assay. FIG. 3D) Cells were treated as above and seeded for migration, and FIG. 3E) invasion transwell assays. Scale bar: 50 μm. FIG. 3F) After pRNA treatment for 48 h, the mRNA levels of ERα target genes TFF-1, FIG. 3G) c-Myc, and FIG. 3H) cyclin D1 in BT474 cells were determined by real-time PCR.
FIG. 7A) Six HER2-targeting RNA aptamers were selected from previous literatures, and their secondary structures were predicted using Srna-fold software. FIG. 7B) Six p2 strands containing the six different HER2 RNA aptamers were synthesized and annealed with the same p1 strand to generate six different pRNA-HER2apt-MED1 siRNA nanoparticles, respectively, followed by examination using 8% native PAGE gel electrophoresis. FIG. 7C) BT474 cells were treated with above pRNA nanoparticles for 48 h, and then MED1 protein level was determined by western blotting. […] FIG. 7D) 1 μg pRNA nanoparticles were incubated with recombinant Dicer enzyme (Genlantis) at 37° C. for 12 h, the product was separated by 8% native PAGE gel.
FIG. 9A) BT474 cells were treated with different concentrations of pRNA nanoparticles as indicated for 48 h. After that, MED1 protein level was determined by western blots, and FIG. 9B) the cell viability was determined by MTT assay.
Cell culture. Human breast cancer luciferase-overexpressing BT474 and MDA-MB-231 cells were maintained in DMEM medium (Hyclone, Thermo Scientific) supplemented with 10% fetal bovine serum (FBS, Sigma) and 1% penicillin/streptomycin (Corning) at 37° C. in a humidified atmosphere with 5% CO2.^53 • Generation of pRNA nanoparticles. The two strands of pRNA were synthesized with the DNA templates, which were amplified with overlapping primers (Sigma) by PCR methods, using a T7 promoter-controlled in vitro RNA transcription system as previously described^33 (Table 1). All the CTP and UTP used for synthesis of the pRNA nanoparticles were 2′-fluoro modified, except the control unmodified pRNA nanoparticles used in the stability assays. Following an overnight transcription at 37° C., RNA strands were purified using RNA clean and concentrator kits (ZYMO research) and examined by 8 M urea denatured 8% PAGE gel. pRNA nanoparticles were assembled by mixing the equal molar amounts of p1 and p2 strands and gradually annealing from 90° C. to 20° C. in 1×RNA annealing buffer containing 50 mM Tris-HCl (pH 7.5), 50 mM NaCl and 1 mM EDTA on a PCR machine. […] The hydrodynamic diameter and Tm value of pRNA nanoparticles were determined using dynamic light scattering and TGGE assay, respectively, as previously described.^54 The AFM imaging of the pRNA nanoparticles was performed at the University of Nebraska Medical Center imaging facility as previously reported.^55 Briefly, the pRNA nanoparticles (5 μL) were deposited on APS modified mica ^56 for a total of 2 min of incubation time. […]

BT474 cells = experiment: Transwell migration and invasion assay, BT474 cells; format: cell-based, human; details: for invasion ability: Matrigel-coated transwell
Protocol: as §1
FIG. 4A) BT474 cells were treated with pRNA nanoparticles in combination with vehicle or 1 μM 4-hydroxy-tamoxifen (4-OHT) as indicated for 48 h, and assayed for cell viability by MTT assay. FIG. 4B) Cells were treated as above and the migration and FIG. 4C) invasion capabilities were examined. FIG. 4D) Cells were treated as above and assayed for in vitro mammosphere formation. FIG. 4E) The number of mammospheres was counted, and FIG. 4F) the mammosphere size was calculated. Scale bar: 10 μm.
FIG. 11. […] BT474 cells were treated with pRNA nanoparticles alone or together with 1 μM 4-hydroxy-tamoxifen (4-OHT) for 48 h. Cell migration and invasion were then examined using transwell assay. Photos were recorded using an Olympus SZX12 microscope. Scale bar: 100 μm.
Migration and metastasis assay. The 8-μm-pore-size polycarbonate membrane, which separates the two chambers of a 6.5-mm Transwell (Costar), was coated with or without 1:8 DMEM-diluted Matrigel (Corning). Transwell assay was performed as previously described.^57 Briefly, BT474 cells were treated with pRNAs alone or together with 4-hydroxy-tamoxifen (4-OHT) for 48 h and starved with serum-free DMEM containing 0.2% BSA overnight. On the next day, cells were collected and 2×10^5 cells were seeded to the upper chamber of Transwell. The lower chamber was filled with 600 μL DMEM medium containing 10% FBS. After incubation at 37° C. for 24 h, cells on the membranes were fixed and stained with 0.1% crystal violet in 20% ethanol solution. Cells at top side of membranes were removed completely, and cells at the bottom side were examined with an Olympus SZX12 microscope and counted. • Mammosphere culture and breast cancer stem cell analyses. BT474 cells were treated with pRNAs for 48 h. Then, cells were suspended in DMEM/F12 medium supplemented with 1×B27 (Thermo Fisher), 20 ng/mL bFGF and 20 ng/mL EGF (R&D), and added into 24-well ultralow attachment plates. After treatment with or without 1 μM 4-OHT for 7 days, mammosphere formation was recorded using an Axiovert S100 TV inverted microscope (Zeiss). Xenograft tumor tissues were cut into small pieces and digested with trypsin and collagenase at 37° C. for 1 h, and tumor cells were collected and rinsed with pre-cold PBS. All cells were stained with FITC-conjugated anti-CD44 antibody and PE-conjugated anti-CD24 antibody (BD Pharmingen) in the dark on ice for 30 min. After resuspension with 0.5 mL PBS buffer, CD44^+/CD24^−/low cell population was analyzed by flow cytometry. • Orthotopic xenograft breast tumor mouse model, in vivo imaging and anti-tumor therapy. […]

[1] = BT474, in combination with 1 μM 4-hydroxy-tamoxifen, 48 h

B1: pRNA-HER2apt-siMED1: 3-WJ pRNA nanoparticle bearing a HER2-targeting RNA aptamer and two different MED1 siRNAs; strands p1 SEQ ID NO: 3, p2 SEQ ID NO: 4 (nucleic acid)
chain 1: GGACAGUGAAAGUGAGUCAAAGGAUCAAUCAUGGCCAAAGAUGUUACUUUGAGAGCCUU
chain 2: GGCUCUCAAAGUAACAUCUAAGGCCAUGUGUAUGUGGGGGGAGGACGAUGCGGUCUGCUGUGCUUGAUAUGCCCCAGACGACUCGCCCCCCACAUACUUUGUUGAUCCAAUGACUCACUUUCACUGUCCUU
modifications: 2'-F modification; third strand may lack entry; pRNA-HER2apt-siMED1, p1; pRNA-HER2apt-siMED1, p2
- dose dependence of decrease of MED1 protein level (MED1; BT474, different concentrations): dose-dependent manner
- MED1 protein level (MED1; BT474, direct incubation): greatly reduced
- MED1 protein level after transfection with lipofectamine 2000 (MED1): MED1 silencing
- invasion ability (BT474 cells; BT474, 48 h treatment): specifically suppressed
- migration ability (BT474 cells; BT474, 48 h treatment, transwell without Matrigel): specifically suppressed
- effect on tamoxifen inhibition of invasion (BT474 cells; [1]): significantly enhanced the inhibitory effects of tamoxifen
- effect on tamoxifen inhibition of migration (BT474 cells; [1]): significantly enhanced the inhibitory effects of tamoxifen

B2: pRNA-HER2apt^mut-siMED1: control pRNA nanoparticle with mutant HER2 aptamer; strands p1 SEQ ID NO: 5, p2 SEQ ID NO: 6 (nucleic acid)
chain 1: GGACAGUGAAAGUGAGUCAAAGGAUCAAUCAUGGCCAAAGAUGUUACUUUGAGAGCCUU
chain 2: GGCUCUCAAAGUAACAUCUAAGGCCAUGUGUAUGUGGGAUGAGGAGUAUGAAGAUACCUGUACUUGAUAUGCCCCAGACGACAUUCCCCCCACAUACUUUGUUGAUCCAAUGACUCACUUUCACUGUCCUU
modifications: pRNA-HER2apt(mut)-siMED1, p1; pRNA-HER2apt(mut)-siMED1, p2
- MED1 protein level after transfection with lipofectamine 2000 (MED1): MED1 silencing
- invasion ability (BT474 cells; BT474, 48 h treatment): not
